Reference: patent US20240026407A1, “MODIFICATION OF SAPONINS” (GLAXOSMITHKLINE BIOLOGICALS SA, priority 2020, published 2024)

How the values were obtained:
Format in all cases: biochemical, Quillaja saponaria
[1] = Experiment 6-1: screening of rhamnosidases for derhamnosylation of saponins in treated bark extract (2%), QS-17 2310 to QS-18 2164 (PAR %); settings: TBE 2%, pH 7.5, 30 degC, 18 h; TIC peak area ratio percent, LCMS/MS; negative controls 3.061, 2.429
[2] = Experiment 6-1: specificity of rhamnosidases towards other rhamnose residues (C3 saccharide rhamnose, C28 saccharide rhamnose); settings: TBE 2%, pH 7.5, 30 degC, 18 h; LCMS/MS; negative controls 0.18, 0.17
[3] = Experiment 6-1: screening of rhamnosidases for derhamnosylation of saponins in treated bark extract (2%), desglucosyl-QS-17 2134 to QS-21 1988 (PAR %); settings: TBE 2%, pH 7.5, 30 degC, 18 h; TIC peak area ratio percent, LCMS/MS; negative controls 2.719, 2.158
[4] = Experiment 6-1: screening of rhamnosidases for derhamnosylation of saponins in treated bark extract (2%), QS-17 2296 to QS-18 2150 (PAR %); settings: TBE 2%, pH 7.5, 30 degC, 18 h; TIC peak area ratio percent of rhamnosylated starting saponin to derhamnosylated product, LCMS/MS; negative controls 4.876, 5.225

B1: 1058 (protein, listed as Cyclobacterium marinum)
chain: MKLTTYYFCLIAGLCSLFTFGLHAQESAIYKQMRQNFQQPPNTAKPTVYHWWLGGDVDTVRLKEEILSFDKAGIAGFTIFEIGSRDTVFVGAGPEFLGEASLETIKVAVEEAGKYGMEVGLNTASSWNAGGNWLTPKHAAKSIYQRKVNVSGGGKEKIKLPFPDIPEKDPRGRKRLISYGKDGKPVYSEEIAVLAIPLVGENAAIDTSLIKDVSIYFDANKEVLNWDVPEGDWKIVRYVSSNSGENLVLPSKYSAGPIVDHFDADATAFHFNYIIDRLESKLGDLRKTSLKNLYMASYEARGFNWTPTLPQEFQELNGYDIKKFLPILFGEVSLSQEATAAFRAGFQRTLSELMIKNFYMKSKEICNAHGLKNNSEAGGPGYPLHDVPVEPLKALGKGLDIPRGEFWINHHNFSEEGMDVLRVVKEVSSASNIYGVGMVEMEAFTTFQQWQEGPYEMKPMGDRAFAEGMNRVVVHGSTHNPKGTGNPGIVYHAGTHYNDKRVWWKKVRPFNDYLARISYVLQEADFQSDVLYYYGDTIPNYGGHKRSRFNPGEGYDFELLNTEILFGLEVKNGKIINPRNGAEFKVLALTKEHEINPKVLSKLEQMASSGAIITGPKPNRIAPERNMKELPNMNGWLDNLWKPFSKQSFKPGSKAIYYNVSVGEILKALELSPDFSYKGNGFYTLDYTHYQKGDMDFYFIVNTTGEWLSRDLIFRQEGKVPELWNPENGNISPIPIYKETEEGISLPLSLAPHESAFVVFKPGIKPVHFTKIAHGGIHPPKVRYSDQGIEFWEEGEFGLGHGEDTLILNNFPNVKSLEGAWEIYFPEGWGAPDKAIFPELKSWTESENEGIKYFSGTARYEKKFIHEMHASEYPEAKIYLDLGDLSHVAEVWLNDKPLGITWSKPYRFDVTEAIKPGINTLKIEVANTWSNRLTGDAITGKDYTQTHVNNTVIKGMPNFRVTWENAPLIPSGILGPVTLTTVLPIAMPK
Q: With B1 as the molecule, how does the “Peak57 (PAR %)” value [1] read?
A: 3.144%

Q: What about the “ratio PP/QS-21” value [2] of the same molecule?
A: 0.17

Q: What about the “Peak75 (PAR %)” value [3] of the same molecule?
A: 2.398%

Q: And the “QS-17 (PAR %)” value [4]?
A: 5.121%

B2: 1024 (protein)
chain: MKRTLLLTFLLLSVSALCFSQKLVEVAKGYSCTSVNTTIFRNNSLVTHGDEQYISYYDADGYLVLGKRKLNSKQWTLHRTQYRGNVKDAHNIISIMVDGEGYLHVSFDHHGHKLNYCRSIAPGSLELGDKMPMTGVDEGNVTYPEFYPLTDGDLLFVYRSGSSGRGNLVMNRYSLKDHKWARVQDVLIDGEDKRNAYWQLYVDEKGTIHLSWVWRETWQVETNHDLCYARSFDNGVTWYKSDGEQYKLPITASNAEYACRIPQNSELINQTSMSADAGGNPYIATYWRSSDSEVPQYRIVWNDGKTWHNRQVTDRKTPFTLKGGGTKMIPVARPRIVVEDGEIFYIFRDEERGSRVSMAHTADVANGKWIVTDLTDFSVDAWEPSHDTELWKKQRKLNLFVQHTCQGDGERTAEIEPQMIYVLEANTNTKK
modifications: Bacteroides thetaiotaomicron
Q: Which results are given for B2?
A: Peak57 (PAR %) [1]: 2.924%; ratio PP/QS-21 [2]: 0.17; Peak75 (PAR %) [3]: 2.806%; QS-17 (PAR %) [4]: 5.145%

B3: 1043 (protein, listed as Flavobacterium johnsoniae)
chain: MKLSLKTFFYTMLLFSFFHAFSQEKLVSPWPESSNINQPWARWWWMGSAVDKPNLKRSLIDFHKAGIGGVEITPIYGVKGEENNFIDYLSPKWMEMLDYTIHVSDSLKMQVDMVLGTGWPYGGSHVTLPHAATKLIVEKYTVKKNETFDRDITVDSSKEKTPASLLYVVAYGNDGSFVNLTNELQNKKVNVKDKGLEGSNIKLPNKLEPNKLNWKAKKADYTIYAVFSGKTGQQVKRAAPGGKGYTLDHYSEEALKAYVIPFNEALKGREGKIRAVFNDSFEVYGTDFTPNFFEEFQKLRGYDLKKQLPVLLNETDNEIGNRIRSDYRQTISDLLLNKFDKFWTNWAHSKNFKTKLQAHGSPGNLIDLYASADIPECETFGSMPFDIPGFRRDKEDIREGDADPVMLKFSSSAAHISGKNLVSSETFTWLREHFKTALSQCKPEAEDLMLNGVNHIFLHGSTYSPDRAVWPGWQFYASVNFNSNNTIWEDAPALFSYISNCQSLLQQGKPDNEILLYWPIFDAWDKYEKGTLFYQFKIHSLSDWLYGTSFYDTTKNLMKKGYSVDFISDNFIAEAKVVNGNIVLPGGNFKSLVIPSCKKMPVETLQKLIELKKAGACILFEGLPESVPGFKDYKKQEQNLKNLLAENKIQAVSNIFTSLEDAKILPESLVNTGLKSIRRDINGEKIYYLVNHTAKTIDDFIPLQVENKEIILLDPLTHESGNAIVNKKDKITYVKIKIEPGQSYFLKTENTASQKKWNYFESASEPIALKGNWKLSFDKGGPKLPADAVVSNLESWTKLSPDAEAFSGSAAYTLQFENPNPKIENWSLNLGDVRESAKVWLNDEFIGTAWSVPYKLNIQKLKPGKNVLKIQVTNLPANRIRDMELKGQEWKIFHEINMVDKDYKKFDATKWIPMPSGLLGPVTLTALKQEN
Q: For B3, which “Peak57 (PAR %)” value [1] is on record?
A: 3.119%

Q: What about the “ratio PP/QS-21” value [2] of the same molecule?
A: 0.15

Q: What about the “Peak75 (PAR %)” value [3] of the same molecule?
A: 2.791%

Q: And the “QS-17 (PAR %)” value [4]?
A: 5.098%

B4: 1011 (protein, listed as Paenibacillus sp.)
chain: MQSNTAVLLKGGDAVYMKVKGDTDNMAAKDWGDWSARWIWLQEEQGNADKDARHERVYFRRVFELPAGTGKAYSLNMAITGDSRYRLFVNGQRQWAGPCKGHEHVQYYEEFNLEGILQPGINVIAVTVVHYAGTAPFEMGEDGPLSVWRSEQGGLLVEAEITADGQLVQELPTDTSWKAIRDLSYRLRPFPMMRWMGGLEEAAGDTALRDWTLPEYDDSAWSAARIVQPVRDDYGQLTPWQLERRPVPLLYEQEQCFWKLMRSSCGEGKALFTAGHRLELRDGASSTVPSIAGPAAEGVLVQAGQQLWLELDAGELTTGYLQLKLQGGGGSLITLQYAECYEEETGDEEVRRKAVRDEMREQVLRGGYDSYRPAGYGTEDQPEVYEPFWFRTFRYVRLEVHAGHEPLRITGINYRETGYPLQLQGSFHCSDERYNRLWELSVRTLSRCMHETYEDTPYYEQLQYTMDTRLMMEFTYLLSGDDRLARRAMEDYRASQLPNGMLQSRYPSVLPQVIPSFSLYWIGMIHDHYRVFRDLTLVKHYRTAMLSVLDWFDQRLTPEGLVDRTPRQYWNYYDWVEEWPLGAPDCTNEAPATLMSLMYAFALGQAAELLEASGWTQIAAELRQRKAAVNAAVLDNCRQADGPLFRDSPEAGPEVQLSQHTQVWAVLAGTVSAAEGEALLQTVLTDTSMAKLSLPMSYYLFRALELSGMYDRSYGLWTRWMKQLELGLTTLPEIDSADTRSDCHAWSALPITEFTRGILGVRQDIDGIILQPHCGDLQYASGAVSTEQGLITVSWEITTEEGVEVFRLEAVWTPGSAITVILPNGEVQKSDTGRIEIDIRGFNC
Q: With B4 as the molecule, how does the “Peak57 (PAR %)” value [1] read?
A: 3.124%

Q: What about the “ratio PP/QS-21” value [2] of the same molecule?
A: 0.19

Q: And the “Peak75 (PAR %)” value [3]?
A: 2.854%

Q: And the “QS-17 (PAR %)” value [4]?
A: 5.089%

B5: 1060 (protein, listed as Lunatimonas lonarensis)
chain: MTKTFKIGFLLLACVVFVSCSENPKQADCGLCESVGAKWIQVEKELPTEDSLFYLPNPAPLFRKEFGVESHFDSAKLFITAAGYYKATLNGEAIGKNILDPAWTDYTKRVYYAEYDLSAQIQEGTNCFGVSLGNGFYNPLPMRKWGRRNPREDLNVGKPTFIARLVLYYPNGKTKEISTDESWKYSYGPLIKNSVYLGVLYDKGMEIPGWDRPGFNDTGWKSVQVGKGPGGQLQAAFFPAVQVTEEIRPKSIHEIEKDVYIVDMGVNFTGTYKIRLAGNVGDTVTLRFGERLYEDGTLNPMTTVVGQIKAPGIGGPGSPAIAWQTSSYVVDTEPTWFSPDFTYHTFRYMEITGLQKPPLLTDITGLYFHTNVERESHFTSSNSLLNQIQDATTRTFLSNLISVQSDCAVREKFGYGGDLNATAESFIYNFDMRDIYRKTVYDWVDAINDSIFVDTAPFAGIKYCGISWESAYLITQYYLYLYYDETDLVHELYEDNLAWMDKVARIHPEGMVDSGLSDHESLEPVPVQLTGTAHYLQCAEIMETFASLKGDTKNQQRFAELSEKLRAIIKAEFWDKPVTERINRQTLFSTLLFHRIIPEDELGAARDSLVQAVKNGPSGQFNTGIFGTKYVLETLSESVPIDQVYAIVNSTKFPGWGHMISRGATTIWETWQESDNVFTNCHPMFGTVTEWYYRWLGGIRPDPKQPGFKAFVLAPRTPTGLDSISCSYRSPYGDIVSNWRRESGNSVVYDLIIPVGSVASVSLDMKAAQGLSITKDGKAFQPPVTDASTPGEFKLEGGNYKVVVSG
Q: What does the source list for B5?
A: Peak57 (PAR %) [1]: 2.888%; ratio PP/QS-21 [2]: 0.15; Peak75 (PAR %) [3]: 2.382%; QS-17 (PAR %) [4]: 5.159%

B6: 998 (protein)
chain: MLSIALAAALAAGAVAPDWHDGLDWHGVHVAISRDAQQGYTLAWPYGQRTIAAQPLATQTASPLFDGLFAMAQDDLKQDSVSAIRDGAFDHGQPIPCQCFETGLKWPYVWTRDLSYAIDLGLWRFDPARSRNGLKFKLSGVRVASAPQGPAPKRLYPMQDTGSGGSWPISTDRVVWFLGARHLLDDQAFADDVYRALDATLAQDRQYAFDAGFGLYRGETSFLDWREQSYPAWTADEVTFIAQSYALSTNVLHYQALQLAANLADTHHDAKAAAGYRADAAALKAAINAHFWRAERGMYMSYLSGDGTPYDSYDLLGIALAIDSGVAGGERAKQALANYPTWPAGSPVIWPERADQPIYHNRAIWPFVSAYALRAARLTEQPARIAHEIESVLRGAALYGSNMENYELLTQGQHVDEGKLSGPVVNSPRQLWSVAAALAVVTEGVFGLNEDGSVEPKLPTALVPMLFGQRRTITLDLHERQITLQLPEKISGNLLVADRTRTQGTATTVTLKAVQVPDAPLRTDAPLYAPLAPAAPVVQAAGNGWRVSAEGKVRLYLNGRAHGDIDGTATLPRQPGLTCFSATRVDAHGLESLHSPDTCVGETAKVNGSWPRRWTAPATGRYRVALDYANDHGPINTGITAAVKMLEVSCAGSDPQRLPIVMPHSVRAQRSTWGTFTAQAGSACRFALDDGFNMSYLAHFAHYTANNGSGGNGGSSGPLNQAEVHALLIAPLAADRGTP
modifications: Rhodanobacter denitrificans
Q: What does the source list for B6?
A: Peak57 (PAR %) [1]: 3.326%; ratio PP/QS-21 [2]: 0.15; Peak75 (PAR %) [3]: 2.402%; QS-17 (PAR %) [4]: 5.111%
